Data as given in patent US20170369592A1, “NOVEL ANTI-FIBROBLAST ACTIVATION PROTEIN (FAP) ANTIBODIES AND USES DERIVED THEREOF” (Mabimmune Diagnostics AG, priority 2015, published 2017).

T1: FAP (Homo sapiens, UniProt Q12884)
T1 sequence (Q12884 1-760): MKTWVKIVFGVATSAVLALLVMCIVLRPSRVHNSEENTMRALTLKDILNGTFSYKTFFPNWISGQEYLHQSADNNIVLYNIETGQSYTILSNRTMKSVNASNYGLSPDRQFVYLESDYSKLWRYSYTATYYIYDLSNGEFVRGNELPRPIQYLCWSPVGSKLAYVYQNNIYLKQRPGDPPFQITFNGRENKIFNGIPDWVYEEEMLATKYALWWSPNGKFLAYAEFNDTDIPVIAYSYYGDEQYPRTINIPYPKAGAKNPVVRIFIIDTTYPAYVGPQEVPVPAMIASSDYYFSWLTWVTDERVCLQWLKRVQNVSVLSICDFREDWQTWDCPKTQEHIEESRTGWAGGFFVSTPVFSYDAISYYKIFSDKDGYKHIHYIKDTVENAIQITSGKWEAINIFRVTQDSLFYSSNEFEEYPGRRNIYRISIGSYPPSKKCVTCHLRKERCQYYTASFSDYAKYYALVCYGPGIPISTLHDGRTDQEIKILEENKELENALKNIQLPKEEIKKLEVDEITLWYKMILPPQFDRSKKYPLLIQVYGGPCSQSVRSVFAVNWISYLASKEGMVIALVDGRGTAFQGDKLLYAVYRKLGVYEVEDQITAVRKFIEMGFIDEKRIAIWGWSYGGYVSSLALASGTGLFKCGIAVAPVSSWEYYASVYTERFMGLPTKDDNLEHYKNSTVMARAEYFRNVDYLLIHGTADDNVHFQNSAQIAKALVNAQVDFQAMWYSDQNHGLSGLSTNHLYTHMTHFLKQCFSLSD

T2: captured FAP (sFAP) (Homo sapiens, UniProt Q12884)
T2 sequence (Q12884 1-760): T1 sequence (Q12884 1-760)

T3: directly coated FAP (FAP) (Homo sapiens, UniProt Q12884)
T3 sequence (Q12884 1-760): T1 sequence (Q12884 1-760)

B1: NI-206.22F7: recombinant human-derived monoclonal anti-FAP antibody, variable regions in FIG. 1 (antibody, V domains shown)
VH: EVQLVETGGGVVQPGRSLRLSCAASGFSFSTHGMYWVRQPPGKGLEWVAVISYDGSDKKYADSVKGRFTISRDNSKNTVYLEMSSVRAEDTALYYCFCRRDAFDLWGQGTMVTVSS
VL: SYVLTQPPSVSVSPGQTARITCSGDALPKKYAYWYQQKSGQAPVLVIYEDTKRPSGIPERFSGSSSGTMATLTISGAQVEDEADYYCYSTDSSGNYWVFGGGTEVTVL

Legend:
[1] = tested on: metastatic colorectal cancer; details: unconjugated antibody, early phase II trial; cited from earlier work
[2] = target: T1, FAP; details: cited from earlier work
[3] = human, in vivo; cited from earlier work
[4] = target: T2, captured FAP (sFAP); assay: Capture ELISA, FAP captured via his-tag with coated anti-His antibody; format: binding; details: non-linear regression
Method: (§1) ELISA assays were performed with varying antibody concentrations to validate the binding of the exemplary antibodies of the present invention to FAP and to be able to determine their half maximal effective concentration (EC50). For the exemplary recombinant human NI-206.82C2, NI-206.59B4, NI-206.22F7, NI-206.27E8, NI-206.12G4 and NI-206.17A6 antibodies, 96-well microplates (Costar, Corning, USA) were coated with FAP, with a mixture of the 3 peptides or with BSA (Sigma-Aldrich, Buchs, Switzerland) diluted to a concentration of 5 μg/ml in carbonate ELISA coating buffer (15 mM Na2CO3, 35 mM NaHCO3, pH 9.4) for the direct ELISA. For the capture ELISA, the microplates were coated with mouse anti-His monoclonal antibody (Clontech) diluted to a concentration of 3 μg/ml in PBS, the plates were then blocked, FAP or BSA were diluted to a concentration of 2 μg/ml in PBS and added to the plates to be captured. The binding efficiency of the antibodies was then tested. The exemplary NI-206.82C2 antibody specifically and strongly binds to the captured FAP and less efficiently to the directly coated FAP. The exemplary NI-206.59B4 antibody specifically, strongly and similarly binds to the captured FAP and to the directly coated FAP.
(§2) The EC50 values were estimated by a non-linear regression using GraphPad Prism (San Diego, USA) software. […] The binding of NI-206.12G4 towards sFAP was not tested.

[5] = target: T3, directly coated FAP (FAP); assay: Direct ELISA, FAP directly coated; format: binding; details: non-linear regression
Method: as §1, §2

Molecule	efficacy in inhibiting tumor progression [1]	inhibition of FAP [2]	patients with a change in pharmacokinetics and reduced tumor uptake [3]	EC50, binding to captured FAP (sFAP) [4]	EC50, binding to directly coated FAP (FAP) [5]
Sibrotuzumab: a humanized version of the F19 antibody that specifically binds to human FAP	lack of efficacy	not inhibitory	4 of 26		
B1				did not show any binding	did not show any binding
